According to US20260347475 (published 2026):
Positions count from the first letter of the chain named.

B1: P-1150 (antibody, V domains shown)
VH: QVQLVQSGVEVKKPGASVKVSCKASGYTFTNYYMYWVRQAPGQGLEWMGGINPSNGGTNFAQKFQGRVTLTTDSSTTTAYMELKSLQFDDTAVYYCARRDYRFDMGFDYWGQGTTVTVSS
VL: EIVLTQSPATLSLSPGERATLSCRASQGVSTSGYSYLAWYQQKPGQAPRLLIYLASYRASGVPARFSGSGSGTDFTLTISSLEPEDFAVYYCQHSRDLPLTFGGGTKVEIKR
B2: P-1153 (antibody, V domains shown)
VH: B1 VH with F60Y
VL: B1 VL
B3: P-1151 (antibody, V domains shown)
VH: B1 VH with F60Y
VL: B1 VL with A38H
B4: P-1148 (antibody, V domains shown)
VH: B1 VH
VL: B1 VL with A38H

Molecular target: human PD1 (human, UniProt Q15116)
Sequence (Q15116 25-167): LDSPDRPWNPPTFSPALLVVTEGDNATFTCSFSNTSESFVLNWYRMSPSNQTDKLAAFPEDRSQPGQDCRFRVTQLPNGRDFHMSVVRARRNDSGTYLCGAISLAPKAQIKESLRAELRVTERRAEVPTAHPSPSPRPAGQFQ
Test: ELISA

| EC50 [nM] | Binder |
| --- | --- |
| 0.088 | B1 |
| 0.11 | B2 |
| 0.065 | B3 |
| 0.093 | B4 |
